In the supplement of paper PMC10567573:

B1: CCND1 (parent)
chain: PEAEENKQIIRKHAQTFVALCATD

Variants of: B1
Assay: protein stability index of a GFP-peptide fusion (GPS, HEK-293T) (PSI 1-6); higher = more stable
Conditions: c terminus: a fixed tail appended
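Also: lentivirally expressed fusions sorted by FACS into six bins by GFP to DsRed ratio, PSI derived from sequencing read proportions per bin multiplied by bin number.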

| Variant | protein stability index |
| --- | --- |
| PEDEENKQIIRKHAQTFVALCATD [A3D] | 3.27 |
| PELEENKQIIRKHAQTFVALCATD [A3L] | 2.89 |
| PEQEENKQIIRKHAQTFVALCATD [A3Q] | 2.86 |
| PEMEENKQIIRKHAQTFVALCATD [A3M] | 2.81 |
| PEKEENKQIIRKHAQTFVALCATD [A3K] | 2.8 |
| PEWEENKQIIRKHAQTFVALCATD [A3W] | 2.85 |
| PEIEENKQIIRKHAQTFVALCATD [A3I] | 2.93 |
| PEEEENKQIIRKHAQTFVALCATD [A3E] | 3.02 |
| PEHEENKQIIRKHAQTFVALCATD [A3H] | 2.02 |
| PENEENKQIIRKHAQTFVALCATD [A3N] | 3.15 |
| PEGEENKQIIRKHAQTFVALCATD [A3G] | 2.8 |
| PEYEENKQIIRKHAQTFVALCATD [A3Y] | 2.81 |
| PESEENKQIIRKHAQTFVALCATD [A3S] | 2.46 |
| PEREENKQIIRKHAQTFVALCATD [A3R] | 3.26 |
| PECEENKQIIRKHAQTFVALCATD [A3C] | 2.31 |
| PEVEENKQIIRKHAQTFVALCATD [A3V] | 3 |
| PEPEENKQIIRKHAQTFVALCATD [A3P] | 2.43 |
| PETEENKQIIRKHAQTFVALCATD [A3T] | 2.15 |
| PEAMENKQIIRKHAQTFVALCATD [E4M] | 2.23 |
| PEAHENKQIIRKHAQTFVALCATD [E4H] | 2.67 |
| PEAQENKQIIRKHAQTFVALCATD [E4Q] | 2.39 |
| PEAYENKQIIRKHAQTFVALCATD [E4Y] | 2.08 |
| PEACENKQIIRKHAQTFVALCATD [E4C] | 3.62 |
| PEALENKQIIRKHAQTFVALCATD [E4L] | 2.37 |

| Variant | protein stability index |
| --- | --- |
| PEADENKQIIRKHAQTFVALCATD [E4D] | 2.64 |
| PEANENKQIIRKHAQTFVALCATD [E4N] | 2.36 |
| PEAWENKQIIRKHAQTFVALCATD [E4W] | 1.95 |
| PEAKENKQIIRKHAQTFVALCATD [E4K] | 2.04 |
| PEATENKQIIRKHAQTFVALCATD [E4T] | 2.1 |
| PEASENKQIIRKHAQTFVALCATD [E4S] | 2.21 |
| PEAAENKQIIRKHAQTFVALCATD [E4A] | 2.47 |
| PEAFENKQIIRKHAQTFVALCATD [E4F] | 1.92 |
| PEAIENKQIIRKHAQTFVALCATD [E4I] | 2.2 |
| PEARENKQIIRKHAQTFVALCATD [E4R] | 2.33 |
| PEAGENKQIIRKHAQTFVALCATD [E4G] | 2.42 |
| PEAPENKQIIRKHAQTFVALCATD [E4P] | 3.27 |
| PEAVENKQIIRKHAQTFVALCATD [E4V] | 2.38 |
| PEAEEYKQIIRKHAQTFVALCATD [N6Y] | 3.05 |
| PEAEERKQIIRKHAQTFVALCATD [N6R] | 2.22 |
| PEAEEVKQIIRKHAQTFVALCATD [N6V] | 1.85 |
| PEAEEHKQIIRKHAQTFVALCATD [N6H] | 3.04 |
| PEAEEKKQIIRKHAQTFVALCATD [N6K] | 2.38 |
| PEAEEDKQIIRKHAQTFVALCATD [N6D] | 2.79 |
| PEAEEMKQIIRKHAQTFVALCATD [N6M] | 2.39 |
| PEAEEPKQIIRKHAQTFVALCATD [N6P] | 2.12 |
| PEAEELKQIIRKHAQTFVALCATD [N6L] | 1.88 |
| PEAEEIKQIIRKHAQTFVALCATD [N6I] | 2.26 |
| PEAEEGKQIIRKHAQTFVALCATD [N6G] | 2.35 |

| Variant | protein stability index |
| --- | --- |
| PEAEEQKQIIRKHAQTFVALCATD [N6Q] | 2.59 |
| PEAEEWKQIIRKHAQTFVALCATD [N6W] | 2.42 |
| PEAEESKQIIRKHAQTFVALCATD [N6S] | 2.12 |
| PEAEEAKQIIRKHAQTFVALCATD [N6A] | 2.14 |
| PEAEETKQIIRKHAQTFVALCATD [N6T] | 2 |
| PEAEEFKQIIRKHAQTFVALCATD [N6F] | 2.17 |
| PEAEEEKQIIRKHAQTFVALCATD [N6E] | 2.92 |
| PEAEECKQIIRKHAQTFVALCATD [N6C] | 1.93 |
| PSAEENKQIIRKHAQTFVALCATD [E2S] | 2.4 |
| PIAEENKQIIRKHAQTFVALCATD [E2I] | 2.27 |
| PWAEENKQIIRKHAQTFVALCATD [E2W] | 1.81 |
| PVAEENKQIIRKHAQTFVALCATD [E2V] | 2.8 |
| PQAEENKQIIRKHAQTFVALCATD [E2Q] | 2.53 |
| PFAEENKQIIRKHAQTFVALCATD [E2F] | 2.14 |
| PMAEENKQIIRKHAQTFVALCATD [E2M] | 2.98 |
| PDAEENKQIIRKHAQTFVALCATD [E2D] | 2.75 |
| PHAEENKQIIRKHAQTFVALCATD [E2H] | 2.34 |
| PLAEENKQIIRKHAQTFVALCATD [E2L] | 2.08 |
| PRAEENKQIIRKHAQTFVALCATD [E2R] | 1.87 |
| PAAEENKQIIRKHAQTFVALCATD [E2A] | 2.54 |
| PKAEENKQIIRKHAQTFVALCATD [E2K] | 2.73 |
| PCAEENKQIIRKHAQTFVALCATD [E2C] | 2.13 |
| PYAEENKQIIRKHAQTFVALCATD [E2Y] | 2.69 |
| PGAEENKQIIRKHAQTFVALCATD [E2G] | 2.92 |

| Variant | protein stability index |
| --- | --- |
| PPAEENKQIIRKHAQTFVALCATD [E2P] | 2.83 |
| PNAEENKQIIRKHAQTFVALCATD [E2N] | 2.32 |
| PTAEENKQIIRKHAQTFVALCATD [E2T] | 2.29 |
| PEAEENKQPIRKHAQTFVALCATD [I9P] | 3 |
| PEAEENKQSIRKHAQTFVALCATD [I9S] | 2.46 |
| PEAEENKQWIRKHAQTFVALCATD [I9W] | 2.73 |
| PEAEENKQFIRKHAQTFVALCATD [I9F] | 2.86 |
| PEAEENKQGIRKHAQTFVALCATD [I9G] | 3.27 |
| PEAEENKQHIRKHAQTFVALCATD [I9H] | 3.58 |
| PEAEENKQRIRKHAQTFVALCATD [I9R] | 2.17 |
| PEAEENKQCIRKHAQTFVALCATD [I9C] | 2.48 |
| PEAEENKQKIRKHAQTFVALCATD [I9K] | 2.45 |
| PEAEENKQMIRKHAQTFVALCATD [I9M] | 3.53 |
| PEAEENKQQIRKHAQTFVALCATD [I9Q] | 2.81 |
| PEAEENKQYIRKHAQTFVALCATD [I9Y] | 2.71 |
| PEAEENKQDIRKHAQTFVALCATD [I9D] | 3.9 |
| PEAEENKQAIRKHAQTFVALCATD [I9A] | 3.74 |
| PEAEENKQLIRKHAQTFVALCATD [I9L] | 3.36 |
| PEAEENKQTIRKHAQTFVALCATD [I9T] | 2.18 |
| PEAEENKQVIRKHAQTFVALCATD [I9V] | 3.04 |
| PEAEENKQEIRKHAQTFVALCATD [I9E] | 3.89 |
| PEAEENKQNIRKHAQTFVALCATD [I9N] | 3.56 |
